Where a chain is given by its changes, count along the chain named.
B1: VG9B86 (antibody, human IgG1, kappa, V domains shown)
VH: QVQLQESGPGLVKPSETLSLTCTVSGDSISSSYWSWIRQPAGKGLECIGRFYSSGSTSYNPSLKSRVTMAIDTSKNQFSLKLTSVTAADTAVYYCARYSGSYWYFDLWGRGTTVTVSS
VL: EIVLTQSPATLSLSPGERATLSCRASQSVSSYLAWYQQRPGQAPRLLIYDTSNRATGIPARFSGSGSGTDFTLTISSLAPEDFAVYYCQQRSDWLLTFGGGTKVEIKR
notes: also called antibody #71
B2: VG9B129 (antibody, human IgG1, kappa, V domains shown)
VH: EVQLVQSGAEVKKPGSSVKVSCKASGGTFSSYVISWVRQAPGQGLEWMGGILPILSTANYAQKFQGRVTITADKSTSTAYMELSSLRSEDTAVYYCARAHDYYYGMDVWGQGTTVTVSS
VL: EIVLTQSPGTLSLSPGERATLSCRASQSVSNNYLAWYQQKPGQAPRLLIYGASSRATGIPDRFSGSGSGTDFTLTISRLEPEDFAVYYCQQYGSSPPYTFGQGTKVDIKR
notes: also called antibody #59
B3: VG9B159 (antibody, human IgG1, lambda, V domains shown)
VH: EVQLVQSGPGLVKPSETLSLTCTVSGGSISSYYWSWIRQPAGKGLEWIGRFYTGGRNNYNPSFKSRVTMSVDTSQNQFSLKLSSVTAADTAVYYCARDMEYYYDRSGYSYWYFDLWGRGTTVTVSS
VL: SYELMQPPSVSVAPGQTARITCGGNNIGSKSVHWYQQKPGQAPVLVVYDDSDRPSGIPERFSGSNSGNTATLTISRVEAGDEADYYCQVWDSSSDHVVFGGGTKLTVLG
notes: also called antibody #73
B4: VG9B156 (antibody, human IgG1, lambda, V domains shown)
VH: QVQLQESGPGLMKPSETLSLTCTVSNGSISGYFWNWIRQPPGKGLEWIGYIFYSGSTNYNPSLKSRVTISVDTSKNLVSLKLNSVTAADTAVYFCAKLGKWELRTAFDIWGQGTMVTVSS
VL: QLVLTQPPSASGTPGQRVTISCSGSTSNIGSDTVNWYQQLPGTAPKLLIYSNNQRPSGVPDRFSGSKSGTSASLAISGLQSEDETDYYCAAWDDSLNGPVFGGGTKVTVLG
notes: also called antibody #69
B5: VG9B205 (antibody, human IgG1, lambda, V domains shown)
VH: B4 VH with Q5V, E6Q
VL: not shown
notes: also called antibody #70
B6: VG9B411 (antibody, human IgG1, kappa, V domains shown)
VH: EVQLVESGGGLVKPGGSLRLSCSASGFTFSNYDMNWVRQAPGKGLEWVSSISSSSSYIYYADSVKGRFTISRDNAKNSLYLQMNSLRAEDTAVYHCARDVGVTTDYYYYGMDVWGQGTTVTVSS
VL: EIVMTQSPSSVSASVGDRVTITCRASQGINSWLAWYQQDPYKAPKLLIYAASTLQSGVPSRFGGRGSGTEFTLTISSLQPEDFAVYYCQQYNNWPRTFGQGTKVDIKR
notes: also called antibody #58
B7: VG9B194 (antibody, human IgG1, lambda, V domains shown)
VH: EVQLLESGAEVKKPGASVKVSCKASGYTFTGDYMHWVRQAPGQGLEWMGWINPNSGYTNNAEKFQGRVTMTRDTSISTAYMELSRLSSDDTAVYYCTRELDALDVWGQGTMVTVSS
VL: QSVLTQPPSASGSPGQSVTISCTGTSSDVGGYNYVSWYQQHPGKAPKLMIYEVSKRPSGVPDRFSGSKSGNTASLTVSGLQAEDEADYYCNSYAGSNNFEVFGGGTKVTVLG
notes: also called antibody #75
B8: VG9B383 (antibody, human IgG1, lambda, V domains shown)
VH: QVQLQESGPGLVKPSETLSLTCTVSSGSISSYYWNWIRQPAGKGLEWVGRIYTIGNTNYNPSLKSRVTMSIDTSKNQFSLNLSSVTAADTAVYFCAREGYYDSSGSFFPGAFGIWGQGTMVTVSS
VL: SSELTQPASVSGSPGQSITISCTGTSNDVGSYNLVSWYQQHPGKAPKLMIYAGSKRPSGISNRFSGSKSGNTASLTISGLQAEDEADYYCCSFAGATNVVFGGGTKLTVLG
notes: also called antibody #67
B9: VG9B465 (antibody, human IgG1, lambda, V domains shown)
VH: QVQLQQSGPGLVKPSETLSLTCTVSGGSITSYYWNWIRQPAGKGLEWIGRIYTIGNTNYNPSLKSRVTMSIDTSKHQFSLKLSSVTGADTAVYYCAREGYYESDGSFFPGAFNIWGQGTMVTVSS
VL: B8 VL with F93Y, A96T, L107V
notes: also called antibody #74
B10: VG9B201 (antibody, human IgG1, lambda, V domains shown)
VH: QVTLKESGPTLVKPTQTLTLTCTFSGFSLTTHGVGVGWIRQPPRKALEWLALIYWNADKHYSPSLKSRLTITKDTSKNQVVLTMTHMDPVDTATYYCAHEGDWGHYFDFWGQGTLVTVSS
VL: QLVLTQPPSVSAAPGQKVTISCSGSSSNIGNNDVSWYQQLPGTAPKLLIYDNNRRPSGIPDRFSGSKSGTSATLGITGLQTGDEADYYCETWDSSLSAIWVFGGGTKVTVLG
notes: also called antibody #65
B11: VG9B111 (antibody, human IgG1, kappa, V domains shown)
VH: QVQLLESGGGLVKPGGSLRLSCAASGFTFSTYSVNWVRQAPGKGLEWVSSISSDSSYIFYADSMKGRFTISRDNAKNSLYLHMNSLRAEDTAVYYCARDSVTGPFDYWGQGTLVTVSS
VL: DIVMTQSPSSLSASVGDRVTITCQASQDISHYLNWYQQKPGKAPKLLIYDSYILETGVTSRFSGSGSGTDFTFTINSLQPEDIAIYYCQQYDNLPYTFGQGTKVEIKR
notes: also called antibody #62
B12: VG9B639 (antibody, human IgG1, kappa, V domains shown)
VH: QVQLVQSGGGLVKPGGSLRLSCAASGFTFTTYRMNWVRQAPGKGLEWVSSISSSSIYIHSADSVKGRFTISRDNAKNSLYLQMNSLRAEDSAIYYCARERVYTVSFDYWGQGTLVTVSS
VL: B11 VL with V3Q
notes: also called antibody #64
B13: VG9B470 (antibody, human IgG1, kappa, V domains shown)
VH: QVTLKESGPTLVKPTQTLTLTCTFSGFSLTTSGVGVGWIRQPPGKALEWLALILWNDHTIYSPSLKSRLTITKDTSKNQVVLTMTNMDPVDTAAYFCARDKWELRDAFDIWGQGTMVTVSS
VL: EIVMTQSPSFLSASVGDRVTFTCRASQGISRYLAWYQQKPGRAPNLLIYVASTLQSGVPSRFSGSGSGTEFTLTISSLLPEDFATYYCQQLISYPYTFSQGTRLEIKR
notes: also called antibody #61
B14: VG9B396 (antibody, human IgG1, lambda, V domains shown)
VH: EVQLVESGPGLVQPSETLSLTCTVSGDSIRGYYWNWIRQPAGKGLEWIGRIFTTGNTNYNPSLKSRLTMSLDTSKNQFSLKLNSVTAADTAVYYCAREKWDSSSSALYFDFWGQGTLVTVSS
VL: QSVLTQAPSVSGAPGQRVTISCTGSSSNIGADYDVKWYQQLPGTAPKLLIYGNTDRPSGVPDRFSGSKSGTSASLAITGLQAEDEADYYCQSYDSRLTGYVVFGGGTKLTVLG
notes: also called antibody #60
B15: VG9B382 (antibody, human IgG1, lambda, V domains shown)
VH: QVQLQESGPGLVKPSETLSLTCTVSGDSISGYYWNYIRQPAGKGLDWIGRIFTTGNTNYNPSLKSRVTMSVDTSKNQFSLKLTSVTAADTAVYYCARERWDSSSSALYFDYWGQGTLVTVSS
VL: B14 VL with A7P, V35I, T54S, D55N, A73V, R96S, L97M, T98S
notes: also called antibody #68
B16: VG9B161 (antibody, human IgG1, lambda, V domains shown)
VH: QVQLQESGPGLVKPSETLSLTCTVSGGSISSYFWSWIRQPPGKGLEWIGYIFYSGSTNYNPSLKSRVTILVDTSKNHFSLKLSSVTAADTAVYYCARVGRWELRGAFDIWGQGTMVTVSS
VL: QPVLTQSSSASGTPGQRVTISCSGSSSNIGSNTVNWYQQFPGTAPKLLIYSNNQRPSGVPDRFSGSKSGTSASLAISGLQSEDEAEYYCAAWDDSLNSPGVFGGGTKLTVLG
notes: also called antibody #66
B17: VG9B154 (antibody, human IgG1, lambda, V domains shown)
VH: B16 VH with S31Y, S35N, F52Y, L70S, V71L, H77Q, V98E, R100K, G105T, A106T
VL: not shown
notes: also called antibody #72
B18: VG9B169 (antibody, human IgG1, lambda, V domains shown)
VH: EVQLLESGPGLVKPSETLSLTCSVSGGSITNYFWNWIRQPPGKGLEWIGYIFYSGSTSYNPSLKSRVTISVDTSKNRFSLKLISVTAADTAVYYCARVGRWELRTAFDIWGQGTMVTVSS
VL: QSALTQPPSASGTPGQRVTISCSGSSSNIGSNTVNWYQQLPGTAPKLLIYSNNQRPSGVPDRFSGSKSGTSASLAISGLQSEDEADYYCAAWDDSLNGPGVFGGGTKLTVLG
notes: also called antibody #63

Target: T1, γδ T cell receptor on human γδ T cells (human)
T1 construct: also called AG000003021 (γδ T cells)
Test: flow cytometry, dose-response (DRC) binding at 37°C on human γδ T cells
Description: Binding of antibodies to human γδ T cells or SKW cell lines expressing Vγ9/Vδ2, Vγ9/Vδ2 or Vγ5/Vδ2 was carried out by flow cytometry. Briefly, the cells were centrifuged at 300×g for 5 minutes and the pellet was resuspended in 34 ml fresh media (in RPMI+10% FBS). 50 μL of the cells were then plated (44K cells/well) into assay plates. Samples were incubated for one hour at 37° C. in tissue culture (TC) incubator followed by wash steps by adding 100 μl FACS staining buffer. Secondary detention antibodies (A647 conjugated anti-human IgG Fc specific antibody (2 μg/mL) along with AF488 anti mouse CD3, clone OKT3 at 1 ug/mL) were added at 50 μL/well to appropriate wells according to the plate map. After incubating for 60 minutes at 37° C. in the TC incubator, cells were again washed as described above. This is followed by resuspension in 20 μL/well running buffer containing 1:1000 dilution of Sytox blue dead cell stain and the plates were run on iQue Screener.
Gating and data analysis: Human anti-human Vγ9 antibody (VG9B2 mAb at 10 nM) was used to mark the gating of positive population. All cells were first gated for singlets on SCS-A vs. SCS-H dot plot, live/dead followed by CD3 positive population, and this subset of CD3 positive population was gated for Vγ9 positive binding using positive control mAb. Cells were also assessed for cell binding of control mAbs by RL1 (A647) Geomeans from the live cell population. Advanced metrics were used and normalization metrics were chosen to calculate fold over background wells containing secondary antibody alone (designated as ‘background’ within ForeCyt settings).

Row | Max. Activity [fold over background] | Binder
1 | 2670 | B1
2 | 271 | B2
3 | 2510 | B3
4 | 2700 | B4
5 | 2690 | B5
6 | 396 | B6
7 | 2470 | B7
8 | 2780 | B8
9 | 2500 | B9
10 | 3170 | B10
11 | 3430 | B11
12 | 3240 | B12
13 | 4270 | B13
14 | 4540 | B14
15 | 2780 | B15
16 | 2820 | B16
17 | 2590 | B17
18 | 3250 | B18

— patent US20220125947A1 (published 2022)
